Data reported in the supplement of paper PMC10567573.

B1: MLH1 (parent)
chain: YAHQMVRTDSREQKLDAFLQPLSK
B2: ESR2 (parent)
chain: KSCQACRLRKCYEVGMVKCGSRRE

Variants of: B1
Experiment: protein stability index of a GFP-peptide fusion (GPS, HEK-293T) (PSI 1-6); higher = more stable
Conditions: c terminus: a fixed tail appended
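Note: lentivirally expressed fusions sorted by FACS into six bins by GFP to DsRed ratio, PSI derived from sequencing read proportions per bin multiplied by bin number.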

Protein stability index: each site, then its substitutions
V6: L 2.48, M 2.29, I 2.43, F 2.19, Y 2.42, D 3.03, T 2.7, K 2.53, S 2.97, Q 2.71
R7: I 2.57, F 2.18, E 3.17, N 2.98, V 2.12, P 3.06, K 2.74, W 2.32, C 1.59, G 1.96
A2: V 1.93, S 2.82, M 3.12, N 3.54, H 1.8, C 2.09, Y 2.39, T 2.55, G 3.19, L 2.84, Q 2.74, R 3.12, D 4.03
M5: F 2.34, P 2.57, Y 2.43, H 2.53, S 3.02, K 2.98, L 2.49, D 3.34, R 2.59, G 2.63, N 3.16, E 3.31
Y1: M 3.11, L 3.16, G 3.87, D 4.12, S 3.88, H 3.6, C 1.59, A 3.48, T 3.87, W 2.66, N 2.95, R 3.12, K 3.88, F 2.12, I 3.38, Q 3.97
D16: K 2.63, Y 1.57, W 3.5, G 2.08, Q 2.46, A 2.69, N 1.91, I 2.16, S 2.1, V 1.66, L 1.62, C 1.99
L15: N 3.28, Q 3.77, W 2.37, D 3.25, I 2.17, H 2.57, E 3.83, G 3.28, F 2.2
H3: N 3.13, G 2.15, I 2.5, F 2.19, Y 2, L 2.19, C 2.01, D 3.05, K 2.75
S10: L 1.72, A 2.97, E 2.79, M 2.53, R 2.51, Q 2.78, T 2.39, W 1.66, G 2.71, I 3, N 2.43
K14: L 1.54, C 2.08, F 2, A 2.84, Y 1.83, D 2.46, I 2.43, V 2.57, W 1.86, N 2.48, E 2.78
Q13: M 2.06, N 2.48, R 2.78, H 2.04, C 1.54, T 2.7, F 1.72, I 1.94, G 2.32, W 2.18
D9: P 2.29, Q 2.7, W 1.8, H 2.75, R 2.54, E 2.95, T 1.99, A 2.18, M 2.49, Y 1.98, C 2.46, I 2.15, L 2.15, S 2.54, V 1.89, N 2.53
E12: Y 1.98, P 2.32, N 2.37, S 2.32, C 2.19, I 1.82, H 2.34, V 2.42, G 2.2, D 3.18, M 1.87, W 1.6, R 2.53, F 1.74, A 2.37, L 2, T 2.29
R11: C 2.59, T 3.34, I 2.1, Q 2.84, G 2.78, L 1.95, W 1.33, P 2.46, F 2.51
T8: W 1.83, P 2.19, H 2.04, L 2.43, C 2.27, F 2.12, D 2.78, S 2.71, I 2.49, G 2.69
A17: N 3.19, M 2.45, D 3, I 2.69, E 2.98, K 3.29, P 2.66, C 2.15, Q 2.06, S 2.57, F 1.88, R 2.66, L 1.85
Q4: G 2, V 2.37, K 2, W 2.7, F 2, S 2.42, C 2.07, H 2.04, L 2.37, T 2.16, M 2.51, R 1.93, A 2.1, I 2.16

Variants of: B2
Experiment: as above
Conditions: c terminus: a fixed tail appended

Protein stability index: each site, then its substitutions
R22: P 2.33, F 1.41, I 1.83, C 3.45, T 1.92, S 1.91, K 2.35, L 1.33, Q 2.04, E 2.98, Y 1.66, H 1.97, N 1.91, W 2.05, D 3.02, A 1.88, G 1.99, V 1.97, M 2.21
G20: T 2.19, F 2.01, W 1.48, V 1.87, H 2.75, Q 1.73, D 1.87, L 1.73, P 1.84, K 2.41, M 1.73, A 1.91, Y 2.15, I 2.16, C 1.95, R 2.49, S 1.81, E 2.41, N 2.12
R23: V 2.41, A 1.61, P 2.2, L 1.58, D 2.48, F 2.51, I 2.43, S 2.25, H 1.96, Q 2.21, T 1.85, W 1.67, N 2.17, C 2.39, K 1.96, M 1.98, E 2.33, G 1.79, Y 2.09
E24: P 2.74, T 2.12, C 2.28, S 1.79, D 2.28, N 2.02, K 2.45, L 2.07, Y 1.42, R 2.24, I 1.73, G 2.92, F 1.91, M 1.67, A 2.44, Q 1.88, W 2.33, V 2.19, H 1.68
S21: R 2.09, Y 1.76, D 1.75, Q 1.32, T 2.31, H 2.65, K 2.39, F 1.5, W 1.5, C 3.46, N 2.57, A 2.24, E 2.25, G 1.89, P 2.29, L 2.44, M 2.13, V 1.56, I 1.69
C19: H 1.94, S 1.61, P 2.28, A 2.18, M 1.9, R 2.52, Y 1.43, N 2.04, W 3.71, V 1.89, L 1.89, Q 1.53, I 1.4, F 1.86, D 2.51, G 2.11, K 1.76, E 2.43, T 2.81
K18: Q 1.7, T 1.82, H 2.33, S 2.85, E 2.09, P 1.72, D 2.2, N 2.39, V 2.79, W 1.35, F 1.51, L 1.73, Y 1.49, G 1.8, R 2.31, M 1.67, C 2.16, I 1.49
